Assays:
Fer (mouse) = experiment: phosphorylation enrichment, bacterial display (enrichment ratio); higher = better substrate or ligand; peptides without Tyr show the background
c-Src = experiment: as above
EPHB1 = EPHB1 (UniProt P54762); experiment: as above
AncSZ = experiment: as above
Fyn = Fyn (UniProt P06241); experiment: as above
MERTK = MERTK (UniProt Q12866); experiment: as above
FGFR1 = FGFR1 (UniProt P11362); experiment: as above
Jak2 = Jak2 (UniProt O60674); experiment: as above
c-Abl (mouse) = experiment: as above
EPHB2 = EPHB2 (UniProt P29323); experiment: as above
Chain of EPHB2 (P29323 whole entry, looked up): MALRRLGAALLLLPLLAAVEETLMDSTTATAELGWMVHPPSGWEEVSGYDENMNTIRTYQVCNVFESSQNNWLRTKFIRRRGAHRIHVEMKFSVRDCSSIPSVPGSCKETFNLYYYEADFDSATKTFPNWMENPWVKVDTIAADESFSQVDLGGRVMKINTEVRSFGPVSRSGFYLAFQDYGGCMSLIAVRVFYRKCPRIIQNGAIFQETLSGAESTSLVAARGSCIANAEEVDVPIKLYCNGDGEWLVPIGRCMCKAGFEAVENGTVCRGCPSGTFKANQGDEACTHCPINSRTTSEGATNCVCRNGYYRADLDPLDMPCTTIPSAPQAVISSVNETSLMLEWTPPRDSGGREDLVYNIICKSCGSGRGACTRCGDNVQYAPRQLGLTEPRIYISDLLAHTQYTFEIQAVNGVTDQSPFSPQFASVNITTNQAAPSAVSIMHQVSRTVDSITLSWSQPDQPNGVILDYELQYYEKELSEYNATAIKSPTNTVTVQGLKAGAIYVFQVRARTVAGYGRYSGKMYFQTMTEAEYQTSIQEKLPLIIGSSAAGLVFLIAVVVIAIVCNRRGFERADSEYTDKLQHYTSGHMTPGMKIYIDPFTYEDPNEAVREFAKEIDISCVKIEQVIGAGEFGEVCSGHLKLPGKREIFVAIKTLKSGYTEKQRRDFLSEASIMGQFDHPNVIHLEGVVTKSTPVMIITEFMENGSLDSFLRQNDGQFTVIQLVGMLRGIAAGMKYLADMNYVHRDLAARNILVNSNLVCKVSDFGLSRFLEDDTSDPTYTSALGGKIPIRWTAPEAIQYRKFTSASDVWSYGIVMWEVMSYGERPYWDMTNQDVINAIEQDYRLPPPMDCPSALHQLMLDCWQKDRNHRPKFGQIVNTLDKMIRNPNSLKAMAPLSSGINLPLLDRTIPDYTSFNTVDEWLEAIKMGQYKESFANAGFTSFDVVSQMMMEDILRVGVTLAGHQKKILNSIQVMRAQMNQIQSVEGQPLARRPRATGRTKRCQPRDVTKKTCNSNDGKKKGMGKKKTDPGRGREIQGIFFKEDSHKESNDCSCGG

Fes = Fes (UniProt P07332); experiment: as above
Chain of Fes (P07332 whole entry, looked up): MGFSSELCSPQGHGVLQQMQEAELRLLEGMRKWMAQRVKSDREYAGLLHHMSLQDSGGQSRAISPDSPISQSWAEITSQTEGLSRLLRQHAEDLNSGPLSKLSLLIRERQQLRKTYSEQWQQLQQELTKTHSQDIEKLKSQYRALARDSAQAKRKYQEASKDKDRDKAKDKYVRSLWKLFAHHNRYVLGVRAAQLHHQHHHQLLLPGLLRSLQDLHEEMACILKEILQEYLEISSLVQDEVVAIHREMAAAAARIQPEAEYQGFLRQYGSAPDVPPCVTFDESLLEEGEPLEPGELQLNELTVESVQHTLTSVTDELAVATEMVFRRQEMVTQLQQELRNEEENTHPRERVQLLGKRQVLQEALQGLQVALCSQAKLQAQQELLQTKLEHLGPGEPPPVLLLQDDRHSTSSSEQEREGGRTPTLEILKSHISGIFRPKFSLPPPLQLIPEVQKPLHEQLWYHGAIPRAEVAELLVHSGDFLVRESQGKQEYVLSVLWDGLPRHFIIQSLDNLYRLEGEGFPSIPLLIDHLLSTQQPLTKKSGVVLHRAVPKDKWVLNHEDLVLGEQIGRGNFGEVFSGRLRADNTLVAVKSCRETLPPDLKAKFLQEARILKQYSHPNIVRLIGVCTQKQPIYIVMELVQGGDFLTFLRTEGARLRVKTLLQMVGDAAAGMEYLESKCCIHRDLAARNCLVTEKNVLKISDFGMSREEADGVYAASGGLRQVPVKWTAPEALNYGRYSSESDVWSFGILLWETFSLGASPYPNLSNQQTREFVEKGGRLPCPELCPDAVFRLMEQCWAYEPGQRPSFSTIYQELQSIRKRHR

Hck = Hck (UniProt P08631); experiment: as above
Chain of Hck (P08631 whole entry, looked up): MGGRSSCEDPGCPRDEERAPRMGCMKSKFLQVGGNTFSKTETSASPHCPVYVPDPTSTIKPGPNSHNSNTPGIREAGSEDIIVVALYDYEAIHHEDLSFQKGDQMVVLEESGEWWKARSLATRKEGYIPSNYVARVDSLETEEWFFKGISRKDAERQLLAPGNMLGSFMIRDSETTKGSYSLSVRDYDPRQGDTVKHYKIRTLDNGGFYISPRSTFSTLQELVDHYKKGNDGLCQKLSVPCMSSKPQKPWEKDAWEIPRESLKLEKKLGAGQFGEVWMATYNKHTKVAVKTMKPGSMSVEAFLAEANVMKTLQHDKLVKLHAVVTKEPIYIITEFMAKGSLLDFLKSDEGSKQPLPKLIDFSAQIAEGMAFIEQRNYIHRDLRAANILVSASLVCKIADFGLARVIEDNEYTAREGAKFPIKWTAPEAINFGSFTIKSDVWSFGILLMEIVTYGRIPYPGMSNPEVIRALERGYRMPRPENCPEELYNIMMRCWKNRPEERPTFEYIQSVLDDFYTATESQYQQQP

FGFR3 = FGFR3 (UniProt P22607); experiment: as above
SHP2-C SH2 = experiment: SH2 binding enrichment of the phosphorylated peptide, bacterial display (enrichment ratio); higher = better substrate or ligand; peptides without Tyr show the background
c-Src SH2 = experiment: as above
Grb2 SH2 = Grb2 SH2 (UniProt P62993); experiment: as above
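Wherever SH2 binding enrichment of the phosphorylated peptide, bacterial display is given: peptide library displayed on the E. coli surface as eCPX fusions, selected cells deep-sequenced, score is each peptide's frequency after selection divided by its frequency in the input.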
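Wherever phosphorylation enrichment, bacterial display is given: 11-residue human phosphosite peptides and single-mutation variants displayed on the E. coli surface, counted by deep sequencing, each peptide's frequency after selection divided by its frequency in the unselected input library; frequency after pTyr selection over input frequency; kinase dosed for 20-30% of maximal phosphorylation in three min.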

Chain of EPHB1 (P54762 whole entry, looked up): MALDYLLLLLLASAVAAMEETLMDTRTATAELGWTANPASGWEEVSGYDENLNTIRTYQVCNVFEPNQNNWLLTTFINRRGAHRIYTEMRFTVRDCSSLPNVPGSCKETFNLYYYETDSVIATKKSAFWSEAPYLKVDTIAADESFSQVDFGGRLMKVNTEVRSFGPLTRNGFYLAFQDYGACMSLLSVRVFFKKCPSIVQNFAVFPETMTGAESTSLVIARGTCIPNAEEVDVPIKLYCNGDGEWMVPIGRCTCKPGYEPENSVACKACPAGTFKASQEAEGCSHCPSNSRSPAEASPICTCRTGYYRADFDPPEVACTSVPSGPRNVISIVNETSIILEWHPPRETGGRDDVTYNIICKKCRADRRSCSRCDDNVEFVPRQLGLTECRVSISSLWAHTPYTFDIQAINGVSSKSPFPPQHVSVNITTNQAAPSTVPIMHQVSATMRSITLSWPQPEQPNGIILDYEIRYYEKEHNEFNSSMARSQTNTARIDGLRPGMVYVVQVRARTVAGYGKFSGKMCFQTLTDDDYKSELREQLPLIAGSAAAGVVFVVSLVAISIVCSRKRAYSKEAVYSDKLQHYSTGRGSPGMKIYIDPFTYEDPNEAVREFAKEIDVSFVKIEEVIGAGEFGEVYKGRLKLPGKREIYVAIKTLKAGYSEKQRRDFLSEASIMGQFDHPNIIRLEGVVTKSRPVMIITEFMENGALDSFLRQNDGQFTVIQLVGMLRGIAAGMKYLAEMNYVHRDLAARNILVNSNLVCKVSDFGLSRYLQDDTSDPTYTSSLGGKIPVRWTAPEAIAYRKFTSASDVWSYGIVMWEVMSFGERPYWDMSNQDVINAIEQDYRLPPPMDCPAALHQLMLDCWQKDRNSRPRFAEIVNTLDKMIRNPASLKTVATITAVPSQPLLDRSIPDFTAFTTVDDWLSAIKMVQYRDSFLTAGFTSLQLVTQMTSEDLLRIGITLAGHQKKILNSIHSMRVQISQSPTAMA
Chain of Fyn (P06241 whole entry, looked up): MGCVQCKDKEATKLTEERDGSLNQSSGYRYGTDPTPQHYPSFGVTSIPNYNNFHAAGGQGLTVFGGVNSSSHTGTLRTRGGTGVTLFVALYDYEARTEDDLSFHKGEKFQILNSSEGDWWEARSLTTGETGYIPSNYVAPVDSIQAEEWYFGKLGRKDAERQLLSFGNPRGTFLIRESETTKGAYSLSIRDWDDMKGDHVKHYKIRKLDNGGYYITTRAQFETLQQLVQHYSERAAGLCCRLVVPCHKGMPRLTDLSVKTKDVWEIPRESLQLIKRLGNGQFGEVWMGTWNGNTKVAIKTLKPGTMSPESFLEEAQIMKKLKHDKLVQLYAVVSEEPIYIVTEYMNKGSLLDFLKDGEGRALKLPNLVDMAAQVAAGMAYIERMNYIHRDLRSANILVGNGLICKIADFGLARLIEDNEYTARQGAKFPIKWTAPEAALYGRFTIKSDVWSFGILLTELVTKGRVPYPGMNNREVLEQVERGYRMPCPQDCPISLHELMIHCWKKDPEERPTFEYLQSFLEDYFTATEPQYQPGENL
Chain of MERTK (Q12866 whole entry, looked up): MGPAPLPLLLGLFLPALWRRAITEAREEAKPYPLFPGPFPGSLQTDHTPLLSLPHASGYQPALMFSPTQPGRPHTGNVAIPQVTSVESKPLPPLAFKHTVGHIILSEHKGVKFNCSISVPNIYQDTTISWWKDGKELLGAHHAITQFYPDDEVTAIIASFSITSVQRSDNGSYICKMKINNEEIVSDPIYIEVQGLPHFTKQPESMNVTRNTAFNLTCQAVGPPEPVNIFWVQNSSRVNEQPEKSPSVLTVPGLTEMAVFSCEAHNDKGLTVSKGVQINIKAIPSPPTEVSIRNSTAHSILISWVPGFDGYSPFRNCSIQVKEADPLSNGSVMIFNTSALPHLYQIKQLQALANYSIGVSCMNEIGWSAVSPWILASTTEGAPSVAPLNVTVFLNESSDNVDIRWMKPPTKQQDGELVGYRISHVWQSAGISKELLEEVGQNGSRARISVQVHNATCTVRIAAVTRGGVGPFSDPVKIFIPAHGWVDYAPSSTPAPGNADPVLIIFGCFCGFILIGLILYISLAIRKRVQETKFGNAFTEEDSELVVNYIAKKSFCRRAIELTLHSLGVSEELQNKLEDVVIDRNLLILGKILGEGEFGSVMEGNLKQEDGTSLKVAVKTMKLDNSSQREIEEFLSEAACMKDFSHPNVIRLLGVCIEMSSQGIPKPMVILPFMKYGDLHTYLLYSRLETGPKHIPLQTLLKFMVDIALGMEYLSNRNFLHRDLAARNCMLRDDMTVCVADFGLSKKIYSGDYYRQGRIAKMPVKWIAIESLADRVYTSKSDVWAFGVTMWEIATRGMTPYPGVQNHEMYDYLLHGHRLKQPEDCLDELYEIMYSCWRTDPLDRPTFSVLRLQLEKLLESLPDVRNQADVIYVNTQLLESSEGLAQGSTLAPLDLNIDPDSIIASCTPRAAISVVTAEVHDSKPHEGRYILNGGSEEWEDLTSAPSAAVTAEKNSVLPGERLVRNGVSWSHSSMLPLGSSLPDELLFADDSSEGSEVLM

| Sequence | SH2 binding enrichment (SHP2-C SH2) | SH2 binding enrichment (c-Src SH2) | SH2 binding enrichment (Grb2 SH2) | phosphorylation enrichment (Fer (mouse)) | phosphorylation enrichment (c-Src) | phosphorylation enrichment (EPHB1) | phosphorylation enrichment (AncSZ) | phosphorylation enrichment (Fyn) | phosphorylation enrichment (MERTK) | phosphorylation enrichment (FGFR1) | phosphorylation enrichment (Jak2) | phosphorylation enrichment (c-Abl (mouse)) | phosphorylation enrichment (EPHB2) | phosphorylation enrichment (Fes) | phosphorylation enrichment (Hck) | phosphorylation enrichment (FGFR3) |
| --- | --- | --- | --- | --- | --- | --- | --- | --- | --- | --- | --- | --- | --- | --- | --- | --- |
| GGFTCYSDGKK [PROS1_Y266_C267S_YF] | 0.547 | 0.317 | 0.711 | 0.654 | 0.471 | 0.689 | 1.3 | 0.55 | 0.437 | 0.555 | 1.37 | 0.856 | 0.586 | 1.51 | 0.55 | 0.933 |
| KNCFKYFMSDD [ATRX_Y203_YF] | 0.529 | 0.546 | 0.803 | 0.589 | 0.646 | 0.639 | 1.37 | 0.453 | 0.556 | 0.604 | 1.27 | 1.02 | 0.714 | 1.45 | 0.556 | 0.84 |
| FGSRLYKYAFK [FANCD2_Y458_L456R] | 0.628 | 0.77 | 1.09 | 0.473 | 0.318 | 0.363 | 0.593 | 0.341 | 0.342 | 0.344 | 0.488 | 0.5 | 0.429 | 0.715 | 0.399 | 0.407 |
| DDPRRYQKFGF [OAS1_Y362_YF] | 0.909 | 0.467 | 1.15 | 0.414 | 0.321 | 0.376 | 0.593 | 0.502 | 0.475 | 0.438 | 0.674 | 0.418 | 0.425 | 0.667 | 0.398 | 0.528 |
| WYQTKYEELQI [KRT6B_Y360] | 1.2 | 5.9 | 0.798 | 0.614 | 0.552 | 0.454 | 1.11 | 0.474 | 0.437 | 0.503 | 1.15 | 0.741 | 0.639 | 1.23 | 0.649 | 0.727 |
| EVNQDYGLDPK [FH_Y110] | 0.581 | 0.508 | 0.807 | 0.519 | 0.466 | 0.631 | 1.31 | 0.604 | 0.443 | 0.572 | 1.17 | 0.765 | 0.546 | 1.29 | 0.596 | 0.837 |
| TAVNGYAFGGG [ECHS1_Y137_A132T] | 0.093 | 0.399 | 0.683 | 0.62 | 0.561 | 0.417 | 0.558 | 0.593 | 0.462 | 0.404 | 0.737 | 0.592 | 0.531 | 0.723 | 0.419 | 0.922 |
| MGRVKYGAYIN [GLB1_Y485_N484K] | 1.51 | 1.38 | 2.27 | 0.416 | 0.378 | 0.282 | 0.506 | 0.472 | 0.358 | 0.374 | 0.447 | 0.461 | 0.408 | 0.569 | 0.401 | 0.47 |
| FPPISYLHAIS [MVD_Y276_N278H] | 0.657 | 0.657 | 0.862 | 0.545 | 0.608 | 0.434 | 0.984 | 0.602 | 0.544 | 0.602 | 0.793 | 0.829 | 0.579 | 1 | 0.565 | 0.612 |
| RETPLYKACER [ASB2_Y162] | 1.27 | 0.855 | 1.42 | 0.504 | 0.568 | 0.441 | 0.777 | 0.457 | 0.527 | 0.457 | 0.632 | 1.02 | 0.573 | 1.13 | 0.577 | 0.759 |
| VKGGAYYPVTV [MCCC2_Y145] | 0.8 | 0.715 | 0.955 | 0.819 | 0.445 | 0.331 | 0.582 | 0.423 | 4.41 | 5.39 | 2.65 | 0.609 | 0.551 | 0.822 | 0.607 | 3.75 |

The next lines start with results.

| SH2 binding enrichment (SHP2-C SH2) | SH2 binding enrichment (c-Src SH2) | SH2 binding enrichment (Grb2 SH2) | Sequence | phosphorylation enrichment (Fer (mouse)) | phosphorylation enrichment (c-Src) | phosphorylation enrichment (EPHB1) | phosphorylation enrichment (AncSZ) | phosphorylation enrichment (Fyn) | phosphorylation enrichment (MERTK) | phosphorylation enrichment (FGFR1) | phosphorylation enrichment (Jak2) | phosphorylation enrichment (c-Abl (mouse)) | phosphorylation enrichment (EPHB2) | phosphorylation enrichment (Fes) | phosphorylation enrichment (Hck) | phosphorylation enrichment (FGFR3) |
| --- | --- | --- | --- | --- | --- | --- | --- | --- | --- | --- | --- | --- | --- | --- | --- | --- |
| 3.28 | 3.88 | 1.65 | CTTIHYNYMCY [TP53_Y234_N239Y] | 1.25 | 2.17 | 5.43 | 0.946 | 1.15 | 0.804 | 3.76 | 0.957 | 0.78 | 3.42 | 1 | 0.647 | 1.95 |
| 0.944 | 0.727 | 1.58 | QRRLVYFEGGA [RYR1_Y245_YF] | 1.33 | 0.376 | 1.18 | 3.89 | 1.02 | 0.531 | 1.34 | 0.825 | 0.912 | 0.995 | 1.39 | 1.13 | 0.902 |
| 0.699 | 0.644 | 1.57 | QQLVAYFSKHA [SRC_Y232_YF] | 0.48 | 0.744 | 0.664 | 0.972 | 0.53 | 0.573 | 0.621 | 0.936 | 0.806 | 0.547 | 1.15 | 0.652 | 0.813 |
| 0.702 | 0.447 | 0.734 | SVMAEYGLYRA [VSX2_Y219_G223R] | 0.512 | 6.41 | 0.701 | 0.951 | 7.16 | 0.552 | 0.537 | 0.569 | 0.945 | 1.28 | 0.862 | 6.46 | 0.578 |
| 0.605 | 0.391 | 0.825 | RCQDLYSARDL [SART1_Y249_R245C] | 2.59 | 6.42 | 1.63 | 1.95 | 4.61 | 4.7 | 0.876 | 1.97 | 1.41 | 1.06 | 1.76 | 9.83 | 1.22 |
